Assay results taken from US20250382354A1 (INSTITUTE FOR RESEARCH IN BIOMEDICINE IRB, published 2025).

Experiments:
SADS FP peptide = SADS FP peptide (SADS); assay: peptide ELISA
HCoV-229E S ectodomain = target: T1, HCoV-229E S ectodomain (HCoV-229E); assay: ELISA on coated S
T1 construct: range 17-1142

[1] = target: C-terminally truncated SARS-CoV-2 S protein (pSARS-CoV2-Strunc), ancestral (SARS-CoV-2, UniProt P0DTC2 14-1273); assay: cell-based or functional assay
HKU24 HR2 peptide [2] = target: HKU24 HR2 peptide (HKU24); assay: peptide ELISA
Eidolon HR2 peptide [3] = target: Eidolon HR2 peptide (Eidolon); assay: peptide ELISA
Erinaceus HR2 peptide = Erinaceus HR2 peptide (Erinaceus); assay: peptide ELISA
Rosettus HR2 peptide = Rosettus HR2 peptide (Rosettus); assay: peptide ELISA
CRCoV-240/05 HR2 peptide = target: T2, CRCoV-240/05 HR2 peptide (CRCoV-240/05); assay: peptide ELISA
T2 construct: domain: HR2 peptide

HKU24 HR2 peptide [4] = target: HKU24 HR2 peptide (HKU24); assay: peptide ELISA; remark: listed apart in the source
Eidolon HR2 peptide [5] = target: Eidolon HR2 peptide (Eidolon); assay: peptide ELISA; remark: listed apart in the source
[6] = target: C-terminally truncated SARS-CoV-2 S protein (pSARS-CoV2-Strunc), ancestral (SARS-CoV-2, UniProt P0DTC2 14-1273); assay: cell-based or functional assay; remark: listed apart in the source
[7] = target: SARS-CoV-2 SD1-RBD Ancestral (SARS-CoV-2 (ancestral), UniProt P0DTC2 319-591); assay: SPR, antigen immobilized, Fab injected

B1: fp.008 (antibody, V domains shown)
VH: VQLVESGGGVVQPGRSLRLSCRASGFRFNNYAMHWVRQAPGKGLEWVAIISYEARNEKYAASVKGRFSISRDNAKNTLYLQMNSLRPEDTAIYYCARDVFLSDYDQSGYDVTRGGFDYWGQGTLVTVSS
VL: EIVMTQSPATLSVSPGESATLSCRASQSVSSSLAWYQHKFGQAPRLLIYGASTRATGIPDRFSGSGSGMEFTLTISSLQSEDVAIYYCQQYGDWPLVTFGGGTKVEIK
In the case of B1, the EC50 (SADS FP peptide) is reported as 0.024 µg/mL, the EC50 (HCoV-229E S ectodomain) is reported as 0.0482 µg/mL and the “Ancestral Pseudovirus IC50” value [1] is reported as 3.56 µg/mL.

B2: fp.009 (antibody, V domains shown)
VH: VQLVESGGGVVQPGTSLTLSCEASGFTFSNYAMHWVRQAPGKGLEWVAIISFDTRNKKFAGSVQGRFSISRDNAKNSIYLQMNNLRPEDTGIYYCARDVFLSDYDSRGFDRTRGGFDYWGQGTLVTVSS
VL: EIVMTQSPATLSVSPGEKATLSCRASESVGSSLAWYQQKLGQAPRLLIYGASTRATGIPARFSGSGSGAEFTLTISSLQSEDFAIYYCQQYGDWPLLTFGGGTKVEIK
B2 was tested, and the EC50 (SADS FP peptide) was 0.0247 µg/mL, the EC50 (HCoV-229E S ectodomain) was 0.0285 µg/mL and the “Ancestral Pseudovirus IC50” value [1] was 0.873 µg/mL.

B3: hr2.012 (antibody, V domains shown)
VH: QVQLVQSGAEVKKPGASVKVSCKASGYTFTSHYIHWVRQAPGQGLEWMGIIKPSGGNTIYAQTFQGRVTMTRDTSTSTVYMELRSLTSDDTAVYYCARDQDHGLQRWGQGTLVTVSS
VL: QSVLTQPPSVSAPPGQKVTISCSGSSSNIGNNFVSWYQQLPGTAPKLLIYDNIERPSGIPDRFSGSRSGTSATLGITGLQTGDEADYYCGTWDTSLGAWVFGGGTKVTVL
B3 was tested, and the EC50 (HKU24 HR2 peptide [2]) was 0.0249 µg/mL, the EC50 (Eidolon HR2 peptide [3]) was 0.463 µg/mL and the “Ancestral Pseudovirus IC50” value [1] was 1.72 µg/mL.

B4: hr2.014 (antibody, V domains shown)
VH: QVQLVQSGAEVKKPGASVKVSCKASGYTFTTYAVHWLRQVPGQRPEWIGWINAANGNTKYSEKFQGRVTITRDTSASTAYMDLRSLRSEDTAVYYCARLLVVRDDPYYYGMDVWGQGTTVTVSS
VL: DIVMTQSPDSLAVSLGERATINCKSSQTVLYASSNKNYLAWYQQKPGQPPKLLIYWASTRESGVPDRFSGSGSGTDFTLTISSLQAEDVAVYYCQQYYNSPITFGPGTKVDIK
For B4, the EC50 (Erinaceus HR2 peptide) was 0.117 µg/mL and the “Ancestral Pseudovirus IC50” value [1] was 0.355 µg/mL.

B5: fp.002 (antibody, V domains shown)
VH: VQLVESGGGVVQPGTSLRLSCAGSGFNFDNYAIHWVRQAPGQGLEWVAIISYEARNKKYAGSVTGRFSISRDNSKSMVYLQMDSLRGEDTAVYYCARDLFLSDYDRSGYDPTRGGFDLWGQGTLVTVSS
VL: EIVMTQSPATLSVSPGERATLSCRASQSVSSSLAWYQHKLGQAPRLLIYGASTRATGIPGRFSGSGSGTEFTLTISSLQSEDVAIYYCQQYGDWPLVTFGGGTKVEIK
With B5 the EC50 (SADS FP peptide) was 0.0252 µg/mL, the EC50 (HCoV-229E S ectodomain) was 0.04 µg/mL and the “Ancestral Pseudovirus IC50” value [1] was 16.1 µg/mL.

B6: hr2.016 (antibody, V domains shown)
VH: EVQLLESGGGLVQPGGSLRLSCAASGFMFSKYAMTWVRQTPGKGLEWVSVISGGGGSTYYADSVKGRFTISRDNSKNTLYLQMNSLRAEDTAVYYCAKLLVVFVIDYWGQGALVTVSS
VL: EIVLTQSPGTLSLSPGERATLFCRASQSVSSNLAWYQQKPGRAPRLLISGASSRATGIPDRFSGSGSGTDFTLTISRLEPEDFAVYYCQQYGSSPPTFGQGTKVEIK
For B6, the EC50 (HKU24 HR2 peptide [2]) was 0.00958 µg/mL, the EC50 (Eidolon HR2 peptide [3]) was 0.033 µg/mL and the “Ancestral Pseudovirus IC50” value [1] was 0.01 µg/mL. For the same binder, the “Ancestral Pseudovirus IC50 (on cells with [not given])” value [1] was 0.012 µg/mL.

B7: fp.003 (antibody, V domains shown)
VH: VQLVESGGGVVQPGTSLRLSCTASGFSFSNYAMHWVRQAPGKGLEWVAIISFDTRNKEFADSVKGRFSISRDNSKNSLNLQMNSLRPEDTGVYYCARDLFLSDYDSRGYEPSRGGFDYWGQGTLVTVSS
VL: EIVMTQSPATLSVSPGERATLSCRASQSVSSSLAWYQQKLGQPPRLLIYGASTRATGIPARFSGSGSGTEFTLTISSLKSEDSAVYYCQQYNDWPLLSFGGGTKVEIK
B7 was tested, and the EC50 (SADS FP peptide) was 0.0305 µg/mL, the EC50 (HCoV-229E S ectodomain) was 0.0443 µg/mL and the “Ancestral Pseudovirus IC50” value [1] was 9.26 µg/mL.

B8: hr2.094 (antibody, V domains shown)
VH: EVQLVESGGGLVQPGGSLRLSCAASGFTFSTFWMTWVRQAPGKGLEWVANIKSDGSEKYYVDSVKGRFTISRDNAKNSLYLQMNSLRAEDTAVYYCATWFGLHWGQGTLVTVSS
VL: DIVMTQSPDSLAVSLGERASINCKSSQTVLYSSNNKNYLAWYQQKPGQPPKLLIHWASTRDSGVPDRFSGSGSGTDFTLTISSLQAEDVAVYYCQQYHRIPWTFGRGTKVEIK
With B8 the EC50 (HKU24 HR2 peptide [2]) was 0.012 µg/mL, the EC50 (Rosettus HR2 peptide) was 0.656 µg/mL and the “Ancestral Pseudovirus IC50” value [1] was 2.95 µg/mL.

B9: CV3-25 (antibody, V domains shown)
VH: QVQLVESGAEVKKPGESLKISCKGSGYTFTRYWIGWVRQMPGKGLEWMGIIYPGDSDTRYSPSFQGHVTISADKSISTAYLQWNSLKASDTAMYYCARLPQYCSNGVCQRWFDPWGQGTLVTVSS
VL: EIVLTQSPSSVSASVGDRVTITCRASQGISSWLAWYQQKPGKAPKLLIYAASSLQSGVPSRFSGSGSGTDFTLTISSLQPEDFATYYCQQGNSFPYTFGQGTNLEIK
Work on B9 yielded an EC50 (CRCoV-240/05 HR2 peptide) of 1.92 µg/mL, an EC50 (HKU24 HR2 peptide [4]) of 0.0521 µg/mL and an EC50 (Eidolon HR2 peptide [5]) of 0.0351 µg/mL. For the same binder, the “Ancestral Pseudovirus IC50” value [6] was 0.223 µg/mL and the “Ancestral Pseudovirus IC50 (on cells with [not given])” value [6] was 0.375 µg/mL.

B10: fp.004 (antibody, V domains shown)
VH: VQLVESGGGVVQPGTSLRLSCVASGFTFSNYAMHWVRQAPGKGLEWVAIISFDTRNTASAASVKGRFNISRDNSKNSLYLQMNSLRPEDTGVYYCARDLFLSDYDSRGYDPITGGFDCWGQGTLVTVSS
VL: EIVMTQSPAALSVSPGEGATLSCRASQSVGSRLAWYQQKLGRPPRLLIYGASTRATGIPARFSGSGSGTEFTLTISSLQSEDFAVYYCQQYNDWPLLTFGGGTKVKIK
In the case of B10, the EC50 (SADS FP peptide) is reported as 0.0276 µg/mL, the EC50 (HCoV-229E S ectodomain) is reported as 0.037 µg/mL and the “Ancestral Pseudovirus IC50” value [1] is reported as 7.84 µg/mL.

B11: fp.005 (antibody, V domains shown)
VH: VQLVESGGGVVQPGNSLRLSCAASGFRFNNYAMHWVRQAPGKGLEWVAIISYEARNEKYADSVKGRFSISRDNAKNTLYLQMNSLRADDTGVYYCARDLFLSDYDTSGYDRTRGGFDYWGQGALVTVSS
VL: EIVMTQSPATLSVSPGERATLSCRASQSVSNGLAWYQHRFGQPPRLLIYGASTRATGIPTRFSGSGSGTEFTLTISSLQSEDFAVYYCQQYDDWPLITFGGGTKVEIK
In the case of B11, the EC50 (SADS FP peptide) is reported as 0.0252 µg/mL, the EC50 (HCoV-229E S ectodomain) is reported as 0.0416 µg/mL and the “Ancestral Pseudovirus IC50” value [1] is reported as 9.09 µg/mL.

B12: sd1.040 Fab (Fab, V domains shown)
VH: QVQLVQSGAEVKKPGASVKVSCKASGYTFTSFYIHWVRQAPGQGLEWMGIIDPSGGSTSYPQKFQGRVTMTRDTSTSTVYMDLSSLRSEDTAVYYCTRDGSAGDNSWFDPWGQGTLVTVSS
VL: not shown
Work on B12 yielded a Kd [7] of 4.2 nM.

B13: hr2.013 (antibody, V domains shown)
VH: QVQLVQSGAEVKKPGASVKISCKASGYTFTNNYMNWVRQAPGQGLEWMGIIKPSSGSTIYAHKFQGRVTMTRDTSTSTVYMEVRSLTSEDTAVYYCARDQDHGLQNWGQGTLVTVSS
VL: QSVLTQPPSVSAASGQKVTIYCSGSSSNIASNFVSWYQQFPGTAPKLLIYDNNQRPSGIPDRFSGSRSGTSATLGITGLQTGDEADYYCGTWDTSLGAWVFGGGTKLTVL
For B13, the EC50 (HKU24 HR2 peptide [2]) was 0.027 µg/mL and the EC50 (Eidolon HR2 peptide [3]) was 0.186 µg/mL.

B14: hr2.023 (antibody, V domains shown)
VH: QVQLVQSGAEVKKPGASVKVSCRASENIFSDSYLHWVRQAPGQGLEWMGIITPSGDKTFYAQQFQGRLTMTRDTPTNTLHMDLRGLTSADTAIYYCARQATKGGWDYWGQGTLVTVSS
VL: EIVLTQSPGTLSLSPGESATLSCRASQSVTRNYLAWYQQQPGQAPRLLIYGASNRATGVPDRFSGSGSGTDFTLTISRLEPEDFAVYYCQQYGSSPPTFIFGPGTKVDIK
In the case of B14, the EC50 (HKU24 HR2 peptide [2]) is reported as 0.0124 µg/mL and the EC50 (Eidolon HR2 peptide [3]) is reported as 0.126 µg/mL.

B15: hr2.025 (antibody, V domains shown)
VH: EVQLVQSGAEVKKPGESLKISCKGSGYSFTNYWIAWVRLMPGKGLEWMGFIFPGDSDTRYSPSFQGQVTISADKSISTAYLQWSSLKASDTAIYYCARRRGNSGNHDPYGMDVWGHGTTVTVSS
VL: not shown
With B15 the EC50 (HKU24 HR2 peptide [2]) was 0.0719 µg/mL and the EC50 (Eidolon HR2 peptide [3]) was 2.92 µg/mL.

B16: hr2.027 (antibody, V domains shown)
VH: EVQLVQSGAEVKKPGESLKISCKGSGYSFANYWIAWVRLMPGKGLEWMGFIFPGDSDTRYSPSFQGQVTISADKSITTAYLHWSSLKASDTAIYFCARRRGNSGNHDPYGMDVWGHGTTVTVSS
VL: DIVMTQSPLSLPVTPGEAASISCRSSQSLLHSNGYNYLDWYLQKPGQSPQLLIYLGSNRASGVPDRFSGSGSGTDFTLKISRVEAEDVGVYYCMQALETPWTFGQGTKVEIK
With B16 the EC50 (HKU24 HR2 peptide [2]) was 0.0919 µg/mL and the EC50 (Eidolon HR2 peptide [3]) was 1.21 µg/mL.
